Source: paper PMC2699888 (Oncogene, 2006)
Ends that are not written are not given here. * marks the point of attachment. Biotin = O=C1N[C@H]2[C@H](CS[C@H]2CCCCC(=O)*)N1

B1: pep102, biotinylated synthetic peptide (peptide)
peptide: Biotin-SGSGDPDCGCSRRGCVLRMIRRRN
modifications: cysteine pairing not given here
B2: pep103, biotinylated synthetic peptide (peptide)
peptide: Biotin-SGSGDPLWCQSAVFLIRMWLRSRN
B3: pogo, biotinylated peptide derived from the Drosophila Pogo transposase (peptide)
peptide: Biotin-SGSGKLFNLHINSAVLQKKITDYF

Target: purified human PCNA (human, UniProt P12004 1-261)
Sequence (P12004 whole entry): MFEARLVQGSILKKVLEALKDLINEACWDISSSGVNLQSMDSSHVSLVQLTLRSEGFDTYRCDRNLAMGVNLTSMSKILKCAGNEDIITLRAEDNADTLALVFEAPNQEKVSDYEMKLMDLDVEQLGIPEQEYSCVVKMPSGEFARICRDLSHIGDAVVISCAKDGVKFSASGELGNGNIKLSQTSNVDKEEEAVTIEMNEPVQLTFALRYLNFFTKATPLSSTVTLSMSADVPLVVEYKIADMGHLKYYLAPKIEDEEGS
Assay: ELISA

Binder	binding result
B1	binds
B2	binds
B3	binds
